We go through 15 molecules from patent US20240158500A1 (UCL BUSINESS, published 2024).

Numbering of substitutions follows the chain as printed.

Assay [1] deals with commercially sourced CD160 protein (UniProt O95971). Briefly: ELISA, coating antigen CD160-His (Commercial CD160), BY55-huIgG1 titrated, OD 450nm. The table under panel C repeats the value.
Assay [2] addresses CD160 fused with Twin streptag (panning reagent from transfected 293T supernatant, unpurified or purified via its Fc region) (human) (UniProt O95971). Briefly: ELISA, coating antigen CD160-Fc purified (Purified CD160 mIgG2a Fc), BY55-huIgG1 titrated, OD 450nm. The table under panel C repeats the value. The curve has no upper plateau in the range shown. In general terms: ELISA stands for enzyme-linked immunosorbent assay.

Assay [3] shares this target. Briefly: ELISA, coating antigen HEK supernatant (unpurified CD160 mIgG2a Fc), BY55-huIgG1 titrated, OD 450nm. The table under panel C repeats the value. The curve has no upper plateau in the range shown.
For assay [4], the target named is T1, purified CD160 (SPR analyte) (UniProt O95971 25-159, limits assumed).
T1 sequence (looked up): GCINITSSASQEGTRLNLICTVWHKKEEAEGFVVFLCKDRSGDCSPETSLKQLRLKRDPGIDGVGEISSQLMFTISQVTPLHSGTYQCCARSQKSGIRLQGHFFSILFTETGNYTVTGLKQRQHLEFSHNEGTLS
Briefly: SPR, Biacore T200, scFv captured on CM5 chip, CD160 as analyte, single-cycle kinetics, 1:1 Langmuir fit. As for the experimental part: FIG. 8—Characterization of the monoclonal scFv identified in the biopanning. [A] […] We identified five different CDR3H in which three were represented in multiple clones and […]. [B] Flow cytometry analysis of the five selected CDR3 expressed secreted as chimeric scFv fused with mIgG2aFc. […] [C] The affinity of these five scFv was determined using Biacore T200 technology. Individual scFvs were captured on a CM5 chip and CD160 was injected as analyte at 5 different concentration (3.70 nM, 11.11 nM, 33.33, nM, 100 nM and 300 nM) in a single-cycle kinetic study. The double-reference subtracted sensorgrams fitted with the 1:1 Langmuir binding model; kinetic and model fitting data are reported in the table.
The kinetic profile of the scFvs was studied by SPR using purified CD160 as the analyte and a range of high affinity scFvs were found (FIG. 8).
(In general: In SPR one partner is held on a chip, and binding of the other changes the refractive index at the surface.)

Take BY55-huIgG1 (antibody): the results for the EC50 in assay [1], in assay [2] and in assay [3] were 0.14 mg/L, 0.21 mg/L and 0.06 mg/L, respectively.

B1: anti-CD160 scFv clone 7 (scFv)
scFv: EVQLVESGPGLVQPSETLSLTCTVSGFSLTSHGVNWFRQPPGKGLEWMGTIWNDGGTDYNSALKSRLSIIRDTSKGQVFLKMNSLQTEDTAIYFCARGLAYWGQGTLVTVSSGGGGSGGGGSGGGGSDIQMTQSPASLSASLGETVNIECLASEDIYSDLAWYQQKPGKSPQLLIYNANSLQNGVPSRFSGSGSGTQYSLKINSLQSEDVATYFCQQYNNYPWTFGGGTKLEIKR
notes: Rat scFv, VH-linker-VL
Regarding B1, in assay [4], the Kd (commonly the equilibrium constant for the complex coming apart) worked out at 0.33 nM; the koff – broadly, the first-order rate constant of dissociation – amounted to 0.00035 s⁻¹; the kon (commonly the rate constant with which the complex forms) was 1.06e+06 M⁻¹ s⁻¹.

B2: anti-CD160 scFv clone 5 (C10) (scFv)
scFv: QVQLKESGPGLVQPSETLSLTCTVSGFSLTNYGINWFRQPPGKGLEWMGTIWNDGGTDYNSALKSRLTISRDTSKSQVFLKMNSLQTEDTAIYFCARGMEAWGQGASVTVSSGGGGSGGGGSGGGGSDIQLTQSPSLLSASVGDRVTLSCKGSQNINNYLAWYQQKLGEAPKLLIYNTNSLQTGIPSRFSGSGSGTDYTLTISSLQPEDFATYFCLQHNSGYTFGAGTKLEIKR
notes: Rat scFv, VH-linker-VL; also called 010
With B2, in assay [4], binding was characterised by a dissociation constant (Kd) of 18.4 nM, the koff came to 0.0305 s⁻¹ and the kon was found to be 1.65e+06 M⁻¹ s⁻¹.

B3: anti-CD160 scFv clone 4 (scFv)
scFv: EVKLVESGGGLVQPGRPLKLSCAASGFTFSNYGMAWVRQAPKKGLEWVATISTGDDNTYYRDSVKGRFTISRDNAKNTQYLQMDSLRSEDTATYYCATHNYESTIFDYWGQGVMVTVSSGGGGSGGGGSGGGGSDIAITQSPASMTASPGERVTITCRASSSVSYMHWYQQKPGASPKPWIYETSKLASGVPDRFSGSGSGTSYSLTINNMEAEDAATYYCQQWNYPSMYTFGAGTKLELKR
In the case of B3, in assay [4], the dissociation constant Kd turned out to be 0.12 nM, the koff turned out to be 3.9e-05 s⁻¹ and the kon came out at 325000 M⁻¹ s⁻¹.

B4: anti-CD160 scFv clone 8 (PB9) (scFv)
scFv: QVNLQESGPGLVQPSETLSLTCTVSGFSLTNYGINWFRQPPGKGLEWMGTIWNDGGTDYNSALKSRLSISRDTSKSQVFLKMNSLQTEDTAIYFCARGMDAWGQGASVTVSSGGGGSGGGGSGGGGSDIQMTQSPASLSASLGETVSIECLASEDIYNNLAWYQQKPGKSPQLLIYYANSLQDGVPSRFSGSGSGTQYSLKINSLQSEDVATYFCQQYNNYPFTFGSGTKLELKR
notes: Rat scFv, VH-linker-VL
Consider B4, for which, in assay [4], the affinity, expressed as Kd, was 4.92 nM; the koff stood at 0.00804 s⁻¹; the kon stood at 1.63e+06 M⁻¹ s⁻¹.

B5: anti-CD160 scFv clone 10 (scFv)
scFv: EVQLVESGPGLVQPSETLSLTCTVSGFSLTSYGVNWFRQPPGKGLEWMGTIWNDGGTDYNSALKSRLSISRDTSKSQVFLKMNSLQTEDTAIYFCARGFEYWGQGTLVTVSSGGGGSGGGGSGGGGSDIVMTQSPKSMSISVGDRVTMNCKASQNVGKNIAWYQQKPGQSPKLLIYYASNRYTGVPDRFTGSGSGTDFTLTITNMQTEDLAVYYCLQYNYNPWTFGGGTKLELKR
notes: Rat scFv, VH-linker-VL
As for B5, in assay [4], the Kd was determined as 8.91 nM, the koff is 0.00245 s⁻¹ and the kon turned out to be 275000 M⁻¹ s⁻¹.

B6: anti-CD160 scFv clone 11 (PB10) (scFv)
scFv: EVQLVESGGGLVQPGRSLKLSCAASGFTFSNYGMAWVRQAPTKGLEWVASINTSGGSTYYRDSVKGRFTISRDNAKSTLYLQMDSLRSEDTATYYCATIYYHDGSYYYAGWFAYWGQGTLVTVSSGGGGSGGGGSGGGGSDIVLTQSPALAVSPGERVSISCRASESVSTLMHWYQQKLGQQPKLLIYGASNLESGVPARFSGSGSGTDFTLNIDPVEADDIATYFCQQSWNGPWTFGGGTKLELKR
notes: Rat scFv, VH-linker-VL
With B6, in assay [4], the Kd turned out to be 9.15 nM, the koff was 0.00125 s⁻¹ and the kon amounted to 137000 M⁻¹ s⁻¹.

B7: anti-CD160 scFv clone 1 (C123) (scFv)
scFv: EVKLVESGGGLVQPGRSLKLSCAASGFIFSNYAMAWVRQAPTKGLEWVASVNSGGANTYYRDSVKGRFTISRDNAKNTQYLHIDSLRSEDTATYYCATHNYESTVFDYWGQGAMVTVSSGGGGSGGGGSSGGGGSEIVLTQSPTTMTASPGEKVTITCRASSSVSYMHWYQQKPGASPKPWIYETSKLASGVPDRFSGSGSGTSYSLTINNMEAEDAATYYCQQWNYPSMYTFGAGTKLELKR
notes: Rat scFv, VH-linker-VL
In assay [4], B7 returned a Kd of 0.00154 nM, a koff of 2.76e-07 s⁻¹ and a kon of 179000 M⁻¹ s⁻¹.

B8: anti-CD160 scFv clone 6 (SC14) (scFv)
scFv: EVQLVESGGGFVQPGRSLKLSCAASGFTFSNYAMAWVRQAPTKGLEWVASINSGGGDSYYRDSVKGRFTISRDNAKNTQYLQMDSLRSEDTATYYCATHNYGSTIFDYWGQGAMVTVSSGGGGSGGGGSGGGGSEIILTQSPTTMTASPGEKVTITCRASSSVSYMHWYQQKPGASPKPWIYETSKLASGVPDRFSGSGSGTSYSLTINNMEAEDAATYYCQQWNYPSMYTFGAGTKLELKR
notes: Rat scFv, VH-linker-VL
Regarding B8, in assay [4], the Kd was 0.541 nM, the koff was 0.000143 s⁻¹ and the kon turned out to be 264000 M⁻¹ s⁻¹.

B9: anti-CD160 scFv clone 9 (PB6) (scFv)
scFv: EVQLVESGGGLVQPGRSLKLSCAASGFTFSNYAMAWVRQAPTKGLEWVASISSGGGDTYYRDSVKGRFTISRDNSKNTQYLQMDSLRSEDTATYYCATHNYESTVLITWGQGASVTVSSGGGGSGGGGSGGGGSEIVLTQSPTTTAASPGERVTITCRASSSVSYMHWYQQKPGASPKPWIYETSKLASGVPDRFSGSGSGTSYSLTINNMEAEDAATYYCQQWNYPSMYTFGAGTKLEIKR
notes: Rat scFv, VH-linker-VL
Consider B9, for which, in assay [4], the Kd worked out at 5.18 nM, the koff was 0.00211 s⁻¹ and the kon amounted to 408000 M⁻¹ s⁻¹.

B10: anti-CD160 scFv clone 3 (C83) (scFv)
scFv: QVNLQESGPGLVQPSETLSLTCTVSGFSLTSYGVYWVRQPPGKGLEWMGRIWNDGGTDYNPALKSRLSISRDTSKSQVFLKLNSLQTEDTAIYFCARGWTHWGQGTLVTVSSGGGGSGGGGSGGGGSDIQMTQSPASLSASLGETVSIECLASEDIYNNLAWYQQKPGKSPQLLIYYASSLQDGVPSRFSGSGSGTQYSLKINSLESEDVATYFCLQDSEYPPTFGGGTKLELKR
In assay [4], B10 displayed a Kd of 1.5e-05 nM, a koff of 1.69e-08 s⁻¹ and a kon of 1.13e+06 M⁻¹ s⁻¹.

B11: anti-CD160 scFv clone 2 (C25) (scFv)
scFv: EVQLVESGGDLVQPGRSLKLSCAASGFTFSNYGMAWVRQAPTKGLEWVASVSNGGGNTYYRDSVKGRFTISRDNAKNTQYLQMDSLRSEDTATYYCVTHNYESTVFDYWGQGAMVTVSSGGGGSGGGGSGGGGSEIVLTQSPTTMTASPGEKVTITCRASSSVSYMHWYQQKPGASPKPWIYETSKLASGVPDRFSGSGSGTSYSLTINNMEAEDAATYYCQQWNYPSMYTFGPGTKLELKR
Take B11: in assay [4], binding was put at a Kd of 0.262 nM, the koff stood at 6.51e-05 s⁻¹ and the kon was 249000 M⁻¹ s⁻¹.

B12: anti-CD160 scFv clone 19 (scFv)
scFv: B11 scFv with Q3K, D10G, S50T, V51I, T98A, T144P, P234A
notes: Rat scFv, VH-linker-VL
In assay [4], B12 yielded a dissociation constant (Kd) of 5.31 nM, a koff of 0.000833 s⁻¹ and a kon of 157000 M⁻¹ s⁻¹.

B13: anti-CD160 scFv clone 12 (scFv)
scFv: EVQLVESGGGFVQPGGSLKLSCAASGFTFSNYGMAWVRQAPKKGLEWVASISSGRGNTYYRDSVKGRFTISRDNAKNTQYLQMDSLRSEDTATYYCVTHNYESTIFDYWGQGVMVTVSSGGGGSGGGGSGGGGSEIVLTQSPTTMTASPGEKVTIICRASSSVSYMHWYQQKPGASPKPWIYETSKLASGVPDRFSGSGSGTSYSLTFNNMEAEDAATYYCQQWNYPSMYTFGAGTKLELKR
notes: Rat scFv, VH-linker-VL
In assay [4], B13 had a dissociation constant Kd of 0.000853 nM, a koff of 1.75e-07 s⁻¹ and a kon of 205000 M⁻¹ s⁻¹.

B14: anti-CD160 scFv clone 16 (scFv)
scFv: QVNLQESGPGLVRPSETLSLTCTVSGFSLISYGVNWFRQPPGKGLEWMGTIWNDGGTDYNSALKSRLSISRDTSKSQVFLKMNSLQTEDTAIYFCARGFEHWGQGVMVTVSSGGGGSGGGGSGGGGSDIQMTQSPASLSASLGETVSIECLTSEDISNDSAWYQQKSGKSPQLLIYAASRLQDGVPSRFSGSGSGTRYSLKISGMQPEDEADYFCQQSYKYPLTFGSGTKLEIKR
notes: Rat scFv, VH-linker-VL
In assay [4], B14 displayed a Kd of 8.72 nM, a dissociation rate constant (koff) of 0.00243 s⁻¹ and a kon of 279000 M⁻¹ s⁻¹.
